Test results as given in US10562947B2, “Compositions and methods for preventing or treating diseases, conditions or processes characterized by aberrant fibroblast proliferation and extracellular matrix deposition” (MOERAE MATRIX, INC., priority 2011, dated 2020).

Assays:
Experiment in all cases: Kinase Profiling Assay
Assay type in all cases: biochemical
Settings in all cases: 100 μM peptide
Arg(h) = Arg(h) (Homo sapiens, UniProt P42684)
In short: (§1)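 Selectivity profiling: MK2-targeting peptides tested on 266 human kinases. All activity determinations done in duplicate.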

DAPK1(h) = DAPK1(h) (Homo sapiens, UniProt P53355)
Sequence of DAPK1(h) (P53355 whole entry): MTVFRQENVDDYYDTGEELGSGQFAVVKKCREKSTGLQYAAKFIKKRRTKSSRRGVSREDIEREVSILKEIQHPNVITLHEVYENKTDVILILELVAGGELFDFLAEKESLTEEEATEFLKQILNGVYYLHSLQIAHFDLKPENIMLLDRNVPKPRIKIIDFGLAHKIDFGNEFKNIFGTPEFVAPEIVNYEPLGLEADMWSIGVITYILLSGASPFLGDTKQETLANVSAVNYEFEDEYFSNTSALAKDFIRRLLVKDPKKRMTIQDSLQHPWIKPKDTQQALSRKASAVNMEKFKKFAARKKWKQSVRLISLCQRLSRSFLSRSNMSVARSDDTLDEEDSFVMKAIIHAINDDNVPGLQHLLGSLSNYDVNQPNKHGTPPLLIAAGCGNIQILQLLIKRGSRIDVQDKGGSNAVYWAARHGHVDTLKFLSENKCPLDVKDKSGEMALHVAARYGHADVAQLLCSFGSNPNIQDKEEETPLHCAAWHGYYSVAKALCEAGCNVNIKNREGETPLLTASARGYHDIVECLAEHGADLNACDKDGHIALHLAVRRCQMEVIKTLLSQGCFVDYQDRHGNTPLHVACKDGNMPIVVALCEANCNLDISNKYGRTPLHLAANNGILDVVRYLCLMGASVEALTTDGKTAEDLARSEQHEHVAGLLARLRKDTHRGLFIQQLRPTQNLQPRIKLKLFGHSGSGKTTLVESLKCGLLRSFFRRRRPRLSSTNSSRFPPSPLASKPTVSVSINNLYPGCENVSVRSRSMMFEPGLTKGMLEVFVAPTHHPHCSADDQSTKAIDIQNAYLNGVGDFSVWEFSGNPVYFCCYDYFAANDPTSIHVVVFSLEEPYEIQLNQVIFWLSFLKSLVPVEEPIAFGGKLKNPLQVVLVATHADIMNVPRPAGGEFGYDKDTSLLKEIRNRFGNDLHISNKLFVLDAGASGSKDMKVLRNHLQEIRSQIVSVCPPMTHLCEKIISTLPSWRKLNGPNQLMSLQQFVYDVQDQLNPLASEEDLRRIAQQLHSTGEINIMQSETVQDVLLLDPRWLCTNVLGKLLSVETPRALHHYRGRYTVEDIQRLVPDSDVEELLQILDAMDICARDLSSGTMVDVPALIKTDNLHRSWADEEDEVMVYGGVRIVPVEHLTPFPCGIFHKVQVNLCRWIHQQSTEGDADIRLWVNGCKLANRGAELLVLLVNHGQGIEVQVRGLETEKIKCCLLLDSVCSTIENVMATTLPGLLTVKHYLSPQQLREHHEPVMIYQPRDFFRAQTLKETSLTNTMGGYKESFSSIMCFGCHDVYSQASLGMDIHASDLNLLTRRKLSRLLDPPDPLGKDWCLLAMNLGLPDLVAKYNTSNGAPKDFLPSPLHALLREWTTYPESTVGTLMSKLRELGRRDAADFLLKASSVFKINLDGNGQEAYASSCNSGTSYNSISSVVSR
In short: as §1

EGFR(h) = EGFR(h) (Homo sapiens, UniProt P00533)
In short: as §1

GSK3α(h) = molecular target: T1, GSK3α(h) (Homo sapiens, UniProt P49840)
T1 construct: purchased Millipore
T1 sequence (P49840 whole entry): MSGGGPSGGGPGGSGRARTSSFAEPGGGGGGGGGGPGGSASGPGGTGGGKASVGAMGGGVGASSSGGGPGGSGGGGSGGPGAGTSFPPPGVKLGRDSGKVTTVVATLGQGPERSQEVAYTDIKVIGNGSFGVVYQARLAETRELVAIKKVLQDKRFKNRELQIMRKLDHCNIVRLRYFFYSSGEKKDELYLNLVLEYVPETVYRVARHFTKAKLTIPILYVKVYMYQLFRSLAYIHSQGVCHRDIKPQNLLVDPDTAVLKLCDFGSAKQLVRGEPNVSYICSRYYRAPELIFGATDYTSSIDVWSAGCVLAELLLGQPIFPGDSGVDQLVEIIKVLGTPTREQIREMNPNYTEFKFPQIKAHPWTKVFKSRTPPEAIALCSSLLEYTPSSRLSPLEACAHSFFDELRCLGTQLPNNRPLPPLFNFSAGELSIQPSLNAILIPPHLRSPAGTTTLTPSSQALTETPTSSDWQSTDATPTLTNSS
In short: as §1

Haspin(h) = molecular target: T2, Haspin(h) (Homo sapiens, UniProt Q8TF76)
T2 construct: purchased Millipore
T2 sequence (Q8TF76 1-798): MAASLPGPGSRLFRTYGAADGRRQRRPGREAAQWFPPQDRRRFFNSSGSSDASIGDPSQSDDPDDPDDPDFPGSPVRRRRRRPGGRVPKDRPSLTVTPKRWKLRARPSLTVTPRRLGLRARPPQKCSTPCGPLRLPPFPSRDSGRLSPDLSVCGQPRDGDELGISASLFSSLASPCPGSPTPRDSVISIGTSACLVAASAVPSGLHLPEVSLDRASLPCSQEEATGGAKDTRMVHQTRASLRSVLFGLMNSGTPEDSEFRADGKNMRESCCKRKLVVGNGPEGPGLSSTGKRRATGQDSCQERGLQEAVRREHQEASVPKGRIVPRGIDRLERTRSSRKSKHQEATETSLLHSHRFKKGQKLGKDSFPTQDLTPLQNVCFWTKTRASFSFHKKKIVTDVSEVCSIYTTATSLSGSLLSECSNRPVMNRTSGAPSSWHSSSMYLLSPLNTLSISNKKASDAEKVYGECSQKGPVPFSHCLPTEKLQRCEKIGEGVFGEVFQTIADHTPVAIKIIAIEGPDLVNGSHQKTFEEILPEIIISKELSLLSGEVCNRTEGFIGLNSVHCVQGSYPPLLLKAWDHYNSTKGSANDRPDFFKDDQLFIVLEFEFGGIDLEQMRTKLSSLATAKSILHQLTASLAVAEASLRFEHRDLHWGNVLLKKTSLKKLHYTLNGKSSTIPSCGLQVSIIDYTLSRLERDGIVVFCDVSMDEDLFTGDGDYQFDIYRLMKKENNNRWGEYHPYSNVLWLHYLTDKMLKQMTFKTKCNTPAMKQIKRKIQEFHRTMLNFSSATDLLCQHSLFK
In short: as §1

IKKβ(h) = molecular target: T3, IKKβ(h) (Homo sapiens, UniProt O14920)
T3 construct: purchased Millipore
T3 sequence (O14920 1-756): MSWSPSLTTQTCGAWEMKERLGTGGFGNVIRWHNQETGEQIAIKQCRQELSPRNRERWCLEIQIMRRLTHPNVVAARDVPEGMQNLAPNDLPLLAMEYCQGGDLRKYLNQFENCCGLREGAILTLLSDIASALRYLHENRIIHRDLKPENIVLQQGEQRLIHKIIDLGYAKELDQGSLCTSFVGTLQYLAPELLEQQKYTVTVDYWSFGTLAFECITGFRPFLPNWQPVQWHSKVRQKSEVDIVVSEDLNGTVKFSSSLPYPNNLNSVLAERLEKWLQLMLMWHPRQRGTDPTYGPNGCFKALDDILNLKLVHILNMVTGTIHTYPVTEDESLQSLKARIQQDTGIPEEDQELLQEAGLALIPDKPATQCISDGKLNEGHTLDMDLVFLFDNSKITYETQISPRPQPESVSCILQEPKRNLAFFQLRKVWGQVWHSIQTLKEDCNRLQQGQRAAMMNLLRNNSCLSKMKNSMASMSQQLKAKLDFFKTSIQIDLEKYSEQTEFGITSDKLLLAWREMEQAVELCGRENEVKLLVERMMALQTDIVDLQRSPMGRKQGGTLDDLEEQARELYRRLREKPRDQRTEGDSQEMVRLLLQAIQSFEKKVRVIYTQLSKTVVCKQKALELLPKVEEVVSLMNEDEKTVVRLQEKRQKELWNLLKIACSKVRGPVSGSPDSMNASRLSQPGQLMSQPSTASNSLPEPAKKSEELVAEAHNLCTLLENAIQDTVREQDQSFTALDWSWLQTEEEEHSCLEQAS
In short: as §1

PAK5(h) = PAK5(h) (Homo sapiens, UniProt Q9P286)
Sequence of PAK5(h) (Q9P286 whole entry): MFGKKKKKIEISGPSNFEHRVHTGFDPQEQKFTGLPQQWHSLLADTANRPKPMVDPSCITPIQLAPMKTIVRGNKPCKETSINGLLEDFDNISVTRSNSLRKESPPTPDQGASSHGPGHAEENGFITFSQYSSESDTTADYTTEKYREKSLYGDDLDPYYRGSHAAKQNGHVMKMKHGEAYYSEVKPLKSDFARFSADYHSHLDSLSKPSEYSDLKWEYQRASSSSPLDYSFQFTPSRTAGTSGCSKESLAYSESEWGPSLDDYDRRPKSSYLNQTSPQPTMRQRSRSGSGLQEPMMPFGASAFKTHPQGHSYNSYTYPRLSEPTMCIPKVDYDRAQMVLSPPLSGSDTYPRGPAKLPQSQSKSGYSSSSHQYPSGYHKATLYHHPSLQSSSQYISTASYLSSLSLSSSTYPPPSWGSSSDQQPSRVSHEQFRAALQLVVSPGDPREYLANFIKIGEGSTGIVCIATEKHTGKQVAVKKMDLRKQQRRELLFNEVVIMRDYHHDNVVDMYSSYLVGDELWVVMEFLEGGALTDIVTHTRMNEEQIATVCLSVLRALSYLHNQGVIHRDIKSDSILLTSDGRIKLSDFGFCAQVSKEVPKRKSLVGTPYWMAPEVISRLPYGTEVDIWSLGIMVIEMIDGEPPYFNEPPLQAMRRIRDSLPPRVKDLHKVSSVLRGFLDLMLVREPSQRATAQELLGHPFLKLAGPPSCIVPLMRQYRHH
In short: as §1

PDGFRβ(h) = PDGFRβ(h) (Homo sapiens, UniProt P09619)
Sequence of PDGFRβ(h) (P09619 33-1106): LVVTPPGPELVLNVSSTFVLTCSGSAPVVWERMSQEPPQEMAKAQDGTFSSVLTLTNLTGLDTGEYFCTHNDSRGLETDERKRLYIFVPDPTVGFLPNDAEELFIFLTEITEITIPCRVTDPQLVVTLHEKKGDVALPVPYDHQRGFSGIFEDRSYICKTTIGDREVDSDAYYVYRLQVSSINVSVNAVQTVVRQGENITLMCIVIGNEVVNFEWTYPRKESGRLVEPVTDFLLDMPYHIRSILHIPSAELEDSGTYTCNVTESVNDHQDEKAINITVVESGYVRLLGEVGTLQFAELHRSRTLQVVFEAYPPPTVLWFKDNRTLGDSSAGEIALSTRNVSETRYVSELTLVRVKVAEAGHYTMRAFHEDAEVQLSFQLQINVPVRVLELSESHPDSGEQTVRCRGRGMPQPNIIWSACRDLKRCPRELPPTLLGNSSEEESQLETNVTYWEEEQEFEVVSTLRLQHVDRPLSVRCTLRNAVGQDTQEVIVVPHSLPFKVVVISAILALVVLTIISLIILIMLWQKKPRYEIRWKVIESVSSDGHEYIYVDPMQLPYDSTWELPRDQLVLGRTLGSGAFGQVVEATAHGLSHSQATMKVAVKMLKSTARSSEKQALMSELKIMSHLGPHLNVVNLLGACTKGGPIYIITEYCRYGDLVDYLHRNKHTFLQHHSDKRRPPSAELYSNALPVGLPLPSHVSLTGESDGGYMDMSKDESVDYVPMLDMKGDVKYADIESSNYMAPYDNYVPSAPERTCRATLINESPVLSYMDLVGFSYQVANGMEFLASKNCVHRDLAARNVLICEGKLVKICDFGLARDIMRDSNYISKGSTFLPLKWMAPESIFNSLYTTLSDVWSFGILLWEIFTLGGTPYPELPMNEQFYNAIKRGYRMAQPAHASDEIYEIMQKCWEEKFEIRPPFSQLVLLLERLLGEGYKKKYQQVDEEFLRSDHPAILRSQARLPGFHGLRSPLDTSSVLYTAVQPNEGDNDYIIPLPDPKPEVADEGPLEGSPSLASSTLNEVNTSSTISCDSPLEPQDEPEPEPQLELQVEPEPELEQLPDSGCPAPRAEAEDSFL
In short: as §1

PKCβII(h) = PKCβII(h) (Homo sapiens, UniProt P05771)
In short: as §1

ROCK-II(h) = molecular target: T4, ROCK-II(h) (Homo sapiens, UniProt O75116)
T4 construct: purchased Millipore (IC50 Profiler Express service)
T4 sequence (O75116 whole entry): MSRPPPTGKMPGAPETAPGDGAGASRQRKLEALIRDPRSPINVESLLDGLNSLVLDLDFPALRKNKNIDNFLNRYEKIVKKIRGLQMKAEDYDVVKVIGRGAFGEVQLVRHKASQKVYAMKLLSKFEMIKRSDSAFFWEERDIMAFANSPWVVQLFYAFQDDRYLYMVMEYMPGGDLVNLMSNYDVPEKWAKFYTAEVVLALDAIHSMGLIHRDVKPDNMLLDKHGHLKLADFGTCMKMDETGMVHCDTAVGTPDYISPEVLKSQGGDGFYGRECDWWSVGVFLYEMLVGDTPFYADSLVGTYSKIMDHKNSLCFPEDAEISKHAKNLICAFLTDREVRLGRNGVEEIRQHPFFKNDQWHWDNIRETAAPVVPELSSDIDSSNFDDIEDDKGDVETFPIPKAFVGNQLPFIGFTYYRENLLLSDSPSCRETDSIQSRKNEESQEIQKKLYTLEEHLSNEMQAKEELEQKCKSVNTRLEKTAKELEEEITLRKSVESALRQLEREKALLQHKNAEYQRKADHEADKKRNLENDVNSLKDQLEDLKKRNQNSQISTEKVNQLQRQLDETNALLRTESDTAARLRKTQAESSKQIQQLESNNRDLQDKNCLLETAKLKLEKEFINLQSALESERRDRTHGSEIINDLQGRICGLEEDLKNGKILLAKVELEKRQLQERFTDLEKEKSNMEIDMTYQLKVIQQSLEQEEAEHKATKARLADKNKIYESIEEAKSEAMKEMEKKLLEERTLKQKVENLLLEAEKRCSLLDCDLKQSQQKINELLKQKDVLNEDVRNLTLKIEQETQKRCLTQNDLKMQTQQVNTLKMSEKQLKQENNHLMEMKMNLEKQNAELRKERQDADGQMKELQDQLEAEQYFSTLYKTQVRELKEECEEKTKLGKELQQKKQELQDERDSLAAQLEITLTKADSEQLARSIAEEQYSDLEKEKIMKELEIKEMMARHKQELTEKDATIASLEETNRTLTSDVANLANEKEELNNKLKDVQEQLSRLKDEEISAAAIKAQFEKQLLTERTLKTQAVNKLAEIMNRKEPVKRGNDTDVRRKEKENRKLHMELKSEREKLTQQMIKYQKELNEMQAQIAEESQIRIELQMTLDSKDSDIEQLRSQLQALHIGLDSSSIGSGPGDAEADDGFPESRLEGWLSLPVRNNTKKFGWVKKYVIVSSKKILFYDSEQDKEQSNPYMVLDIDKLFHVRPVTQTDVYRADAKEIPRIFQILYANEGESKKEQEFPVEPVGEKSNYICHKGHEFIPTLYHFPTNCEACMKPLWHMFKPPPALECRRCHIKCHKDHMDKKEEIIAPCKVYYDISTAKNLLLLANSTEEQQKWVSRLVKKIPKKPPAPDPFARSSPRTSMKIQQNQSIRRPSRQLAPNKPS
In short: as §1

| Sequence | Arg(h) % activity (Arg(h)) | DAPK1(h) % activity (DAPK1(h)) | EGFR(h) % activity (EGFR(h)) | GSK3α(h) % activity (GSK3α(h)) | Haspin(h) % activity (Haspin(h)) | IKKβ(h) % activity (IKKβ(h)) | PAK5(h) % activity (PAK5(h)) | PDGFRβ(h) % activity (PDGFRβ(h)) | PKCβII(h) % activity (PKCβII(h)) | ROCK-II(h) % activity (ROCK-II(h)) |
| --- | --- | --- | --- | --- | --- | --- | --- | --- | --- | --- |
| FAKLAARLYRKALARQLGVAA [MMI-0300] | 72% | 46% | 21% | 157% | 48% | 84% | 110% | 81% | 82% | 74% |
| HRRIKAWLKKIKALARQLGVAA (Mammalian) [MMI-0500] | 22% | 0% | −1% | 175% | 25% | 71% | 125% | 40% | 3% | 2% |
| KAFAKLAARLYRKALARQLGVAA [MMI-0400] | 84% | 36% | 16% | 164% | 36% | 84% | – | 53% | 75% | 77% |
| YARAAARQARAKALNRQLGVA (Mammalian) [MMI-0200] | 82% | – | 83% | – | 71% | – | 100% | 137% | 100% | 85% |
